± gives the standard error. Fewer inactive variants are shown than the library holds.
B1: glmS ribozyme (parent)
chain: AUAAAAGCGCCAGAACUACAGAAAUGUAGUUGACGAGGAGGAGGUUUAUCGAAUUUUCGGCGGAUGCCUCCAAA

Variants of: B1
Assay: self-cleavage kobs at 2500 uM GlcN6P; higher = faster cleavage; RNA array
Conditions: with glucosamine-6-phosphate
Procedure, shortened: (§1)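 Glucosamine-6-phosphate (40 μM to 10 mM) in HEPES/KCl/Mg(OAc)2 buffer was flowed over sequenced MiSeq chips, and tiles were imaged over ~14 h. Barcoded ribozyme variants there had been transcribed in situ by E. coli RNA polymerase and were tracked through a hybridised Cy3 probe at 37 °C. One- or two-exponential decay fits to per-tile medians, normalised to baseline and to non-cleaving reference variants, gave kobs. kcat and KM came from weighted Michaelis–Menten fits across concentrations.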
With A39U A52C C71A the “self-cleavage kobs at 2500 uM GlcN6P” value was < 1e-05 s⁻¹.
For A6G C34A C50U U69A, the “self-cleavage kobs at 2500 uM GlcN6P” value was < 1e-05 s⁻¹.
In the case of C11U U55A C58G, the “self-cleavage kobs at 2500 uM GlcN6P” value is reported as 5.84e-05 ± 1.6e-05 s⁻¹.
For G37C G38U A42C U45C U46G, the “self-cleavage kobs at 2500 uM GlcN6P” value was < 1e-05 s⁻¹.
For C16U U46C U56C, the “self-cleavage kobs at 2500 uM GlcN6P” value was 0.000416 ± 7.9e-05 s⁻¹.
C8U C61A C68U was tested, and the “self-cleavage kobs at 2500 uM GlcN6P” value was < 1e-05 s⁻¹.
For G44C U49A G60A G66U, the “self-cleavage kobs at 2500 uM GlcN6P” value was < 1e-05 s⁻¹.
For G37U A39G C68G, the “self-cleavage kobs at 2500 uM GlcN6P” value was < 1e-05 s⁻¹.
G7U A52U U55C was tested, and the “self-cleavage kobs at 2500 uM GlcN6P” value was < 1e-05 s⁻¹.
For G9U G41A C67U, the “self-cleavage kobs at 2500 uM GlcN6P” value was < 1e-05 s⁻¹.
In the case of G41U U45C A64U, the “self-cleavage kobs at 2500 uM GlcN6P” value is reported as < 1e-05 s⁻¹.
With A15U A42U G43C C61G U69A the “self-cleavage kobs at 2500 uM GlcN6P” value was < 1e-05 s⁻¹.
For C8G A52G G59A, the “self-cleavage kobs at 2500 uM GlcN6P” value was < 1e-05 s⁻¹.
In the case of C11A G38C G40U G59A, the “self-cleavage kobs at 2500 uM GlcN6P” value is reported as < 1e-05 s⁻¹.
With C8U C58G C70U the “self-cleavage kobs at 2500 uM GlcN6P” value was < 1e-05 s⁻¹.
With A33C U49G U69C the “self-cleavage kobs at 2500 uM GlcN6P” value was < 1e-05 s⁻¹.
For U31C U56A C67U, the “self-cleavage kobs at 2500 uM GlcN6P” value was 0.000427 ± 0.00012 s⁻¹.
U30A G41U C70G was tested, and the “self-cleavage kobs at 2500 uM GlcN6P” value was 0.00387 ± 0.0011 s⁻¹.
With U31C C58A C61U A64U the “self-cleavage kobs at 2500 uM GlcN6P” value was < 1e-05 s⁻¹.
With U46G A48U G59U U69C the “self-cleavage kobs at 2500 uM GlcN6P” value was < 1e-05 s⁻¹.
With A1U G41U C70G C71U the “self-cleavage kobs at 2500 uM GlcN6P” value was 0.000249 ± 4e-05 s⁻¹.
In the case of G7A U49A A52C, the “self-cleavage kobs at 2500 uM GlcN6P” value is reported as < 1e-05 s⁻¹.
With A33C G37U A42G G44U A64G G66U the “self-cleavage kobs at 2500 uM GlcN6P” value was < 1e-05 s⁻¹.
With A42G C61A U65C the “self-cleavage kobs at 2500 uM GlcN6P” value was < 1e-05 s⁻¹.
With A12G G59U G60U U65G the “self-cleavage kobs at 2500 uM GlcN6P” value was < 1e-05 s⁻¹.
With G26U A36C the “self-cleavage kobs at 2500 uM GlcN6P” value was < 1e-05 s⁻¹.
For A12U U56A C68A, the “self-cleavage kobs at 2500 uM GlcN6P” value was 6.47e-05 ± 1.9e-05 s⁻¹.
For U46C A52C G60U C61U, the “self-cleavage kobs at 2500 uM GlcN6P” value was < 1e-05 s⁻¹.
With G29A C50G U55A the “self-cleavage kobs at 2500 uM GlcN6P” value was 0.000211 ± 8.8e-05 s⁻¹.
In the case of A42U U47G U69A, the “self-cleavage kobs at 2500 uM GlcN6P” value is reported as 0.0115 ± 0.0021 s⁻¹.
In the case of G9C G37C A42U G43C C50U C67G C71A, the “self-cleavage kobs at 2500 uM GlcN6P” value is reported as < 1e-05 s⁻¹.
In the case of U46G A48G U49G G59A, the “self-cleavage kobs at 2500 uM GlcN6P” value is reported as < 1e-05 s⁻¹.
A12G A48C C50U was tested, and the “self-cleavage kobs at 2500 uM GlcN6P” value was < 1e-05 s⁻¹.
With G9U C11G A12G A48U G51C the “self-cleavage kobs at 2500 uM GlcN6P” value was < 1e-05 s⁻¹.
In the case of C34U A48U G59C C68A U69C, the “self-cleavage kobs at 2500 uM GlcN6P” value is reported as < 1e-05 s⁻¹.
In the case of A36C G41C A42U U46C, the “self-cleavage kobs at 2500 uM GlcN6P” value is reported as < 1e-05 s⁻¹.
For C16U A42U U54G, the “self-cleavage kobs at 2500 uM GlcN6P” value was 0.000152 ± 3e-05 s⁻¹.
In the case of G35A C61U, the “self-cleavage kobs at 2500 uM GlcN6P” value is reported as < 1e-05 s⁻¹.
With C11G C50G C58A the “self-cleavage kobs at 2500 uM GlcN6P” value was 0.00031 ± 0.00011 s⁻¹.
For C10A C16U A48U, the “self-cleavage kobs at 2500 uM GlcN6P” value was < 1e-05 s⁻¹.
With G43A G59C C68G the “self-cleavage kobs at 2500 uM GlcN6P” value was < 1e-05 s⁻¹.
With C8U U54G A64U U65G the “self-cleavage kobs at 2500 uM GlcN6P” value was < 1e-05 s⁻¹.
For A39G U55G C71U, the “self-cleavage kobs at 2500 uM GlcN6P” value was 0.00336 ± 0.0015 s⁻¹.
With U47G G62A C70G the “self-cleavage kobs at 2500 uM GlcN6P” value was 0.000139 ± 3.4e-05 s⁻¹.
In the case of G13A C16U G29U, the “self-cleavage kobs at 2500 uM GlcN6P” value is reported as 5.93e-05 ± 2e-05 s⁻¹.
For C10G A12U G13C G32A, the “self-cleavage kobs at 2500 uM GlcN6P” value was < 1e-05 s⁻¹.
In the case of U31A A36G G63A A64U C71U, the “self-cleavage kobs at 2500 uM GlcN6P” value is reported as < 1e-05 s⁻¹.
C8G A15G U31A G40C G63C was tested, and the “self-cleavage kobs at 2500 uM GlcN6P” value was < 1e-05 s⁻¹.
In the case of A12G A14C A64G, the “self-cleavage kobs at 2500 uM GlcN6P” value is reported as 4.13e-05 ± 1.6e-05 s⁻¹.
In the case of A12C C16U A36C, the “self-cleavage kobs at 2500 uM GlcN6P” value is reported as < 1e-05 s⁻¹.
With U30G G44A the “self-cleavage kobs at 2500 uM GlcN6P” value was 6.16e-05 ± 1.7e-05 s⁻¹.
For A6C G38U A42G U57C, the “self-cleavage kobs at 2500 uM GlcN6P” value was < 1e-05 s⁻¹.
With C50U G60U A64C C70A the “self-cleavage kobs at 2500 uM GlcN6P” value was < 1e-05 s⁻¹.
In the case of G9U A39G G44C C67G, the “self-cleavage kobs at 2500 uM GlcN6P” value is reported as < 1e-05 s⁻¹.
G7U C11U G13C A36U U56A was tested, and the “self-cleavage kobs at 2500 uM GlcN6P” value was < 1e-05 s⁻¹.
A6G G29C U31C was tested, and the “self-cleavage kobs at 2500 uM GlcN6P” value was < 1e-05 s⁻¹.
For C50A A53G C58G C68A, the “self-cleavage kobs at 2500 uM GlcN6P” value was 0.000108 ± 3.9e-05 s⁻¹.
For G13U G66A, the “self-cleavage kobs at 2500 uM GlcN6P” value was 0.000499 ± 0.0001 s⁻¹.
With C8U G35A G63U the “self-cleavage kobs at 2500 uM GlcN6P” value was < 1e-05 s⁻¹.
With U30G G35U G59U the “self-cleavage kobs at 2500 uM GlcN6P” value was < 1e-05 s⁻¹.
For A12U G44C A53U, the “self-cleavage kobs at 2500 uM GlcN6P” value was 6.46e-05 ± 1.9e-05 s⁻¹.
For U30A A39G C70U, the “self-cleavage kobs at 2500 uM GlcN6P” value was 0.00333 ± 0.00077 s⁻¹.
In the case of G40U C58G G60U C68U, the “self-cleavage kobs at 2500 uM GlcN6P” value is reported as < 1e-05 s⁻¹.
In the case of A6U G37A U49C U54A, the “self-cleavage kobs at 2500 uM GlcN6P” value is reported as < 1e-05 s⁻¹.
In the case of A14C U45G C71A, the “self-cleavage kobs at 2500 uM GlcN6P” value is reported as 4.43e-05 ± 1.3e-05 s⁻¹.
For G29A G41A A48C C71G, the “self-cleavage kobs at 2500 uM GlcN6P” value was < 1e-05 s⁻¹.
A14C U31C U65A C70A was tested, and the “self-cleavage kobs at 2500 uM GlcN6P” value was 7.72e-05 ± 2.5e-05 s⁻¹.
With C11G G41U A48C C70G the “self-cleavage kobs at 2500 uM GlcN6P” value was < 1e-05 s⁻¹.
A15U U56G C70U was tested, and the “self-cleavage kobs at 2500 uM GlcN6P” value was 0.000554 ± 0.00014 s⁻¹.
In the case of A33C G35A G38C A52U U65C C68G, the “self-cleavage kobs at 2500 uM GlcN6P” value is reported as < 1e-05 s⁻¹.
A12G A36C G38A A64U was tested, and the “self-cleavage kobs at 2500 uM GlcN6P” value was < 1e-05 s⁻¹.
For G32A A53U U56A C71U, the “self-cleavage kobs at 2500 uM GlcN6P” value was 4.22e-05 ± 1e-05 s⁻¹.
A42U A52U U55C C70G was tested, and the “self-cleavage kobs at 2500 uM GlcN6P” value was < 1e-05 s⁻¹.
C34A A39U G41A U54A was tested, and the “self-cleavage kobs at 2500 uM GlcN6P” value was < 1e-05 s⁻¹.
G40A U56A C70G was tested, and the “self-cleavage kobs at 2500 uM GlcN6P” value was 0.000135 ± 3e-05 s⁻¹.
In the case of A6C A12G A53U, the “self-cleavage kobs at 2500 uM GlcN6P” value is reported as < 1e-05 s⁻¹.
A12G G41A C50A was tested, and the “self-cleavage kobs at 2500 uM GlcN6P” value was < 1e-05 s⁻¹.
For C50U C61U U69A, the “self-cleavage kobs at 2500 uM GlcN6P” value was 0.000118 ± 3.5e-05 s⁻¹.
With G37U G66U C68G C71G the “self-cleavage kobs at 2500 uM GlcN6P” value was 4.28e-05 ± 2e-05 s⁻¹.
With C10A C34G C68G the “self-cleavage kobs at 2500 uM GlcN6P” value was < 1e-05 s⁻¹.
U47A A64U C67G was tested, and the “self-cleavage kobs at 2500 uM GlcN6P” value was < 1e-05 s⁻¹.

Variants of: B1
Assay: self-cleavage kobs at 10000 uM GlcN6P; higher = faster cleavage; RNA array
Conditions: with glucosamine-6-phosphate
Procedure, shortened: as §1
G7U A52U U55C was tested, and the “self-cleavage kobs at 10000 uM GlcN6P” value was < 1e-05 s⁻¹.
With U31C U56A C67U the “self-cleavage kobs at 10000 uM GlcN6P” value was 0.000671 ± 0.00015 s⁻¹.
A1U G41U C70G C71U was tested, and the “self-cleavage kobs at 10000 uM GlcN6P” value was 0.000232 ± 6e-05 s⁻¹.
U46C A52C G60U C61U was tested, and the “self-cleavage kobs at 10000 uM GlcN6P” value was < 1e-05 s⁻¹.
A36C G41C A42U U46C was tested, and the “self-cleavage kobs at 10000 uM GlcN6P” value was < 1e-05 s⁻¹.
For U30G G44A, the “self-cleavage kobs at 10000 uM GlcN6P” value was 6.05e-05 ± 2e-05 s⁻¹.
For G13U G66A, the “self-cleavage kobs at 10000 uM GlcN6P” value was 0.000729 ± 0.00013 s⁻¹.
